pKd: −log10 of the molar value. Where a SMILES comes first, the peptide text is derived from it. Bridges are numbered along the chain shown (N, C = ends). The star is where a group is joined. X1 = CC1=CC(C)(C)N(CCCS(=O)(=O)O)c2cc3c(cc21)/C(=C/C=C/C1=[N+](CCCS(=O)(=O)O)c2ccc(S(=O)(=O)[O-])cc2C1(C)CCCC(=O)*)C=C(C(C)(C)C)O3; X5 = CCN1c2cc3c(cc2C(C)=CC1(C)C)/C(=C/C=C/C1=[N+](CCCS(=O)(=O)O)c2ccc(S(=O)(=O)[O-])cc2C1(C)CCCC(=O)*)C=C(C(C)(C)C)O3; X4 = CCN(CC)c1ccc2c(c1)OC(C(C)(C)C)=C/C2=C\C=C\C1=[N+](CCCS(=O)(=O)O)c2ccc(S(=O)(=O)[O-])cc2C1(C)CCCC(=O)*; X6 = CCN(CC)c1ccc2c(c1)OC(C(C)(C)C)=C/C2=C\C=C\C1=[N+](CCCCCC(=O)*)c2ccc(S(=O)(=O)[O-])cc2C1(C)C
Key:
[1] = in vitro; conditions: mouse, plasma
Description: (§1) The change of the polarization value was used to assess the binding of the Compound to human serum albumin as a low change of polarisation value is associated to low binding being appropriate for in-vivo use.

[2] = target: T1, human serum albumin (Homo sapiens, UniProt P02768); test: in vitro
T1 sequence (P02768 25-609): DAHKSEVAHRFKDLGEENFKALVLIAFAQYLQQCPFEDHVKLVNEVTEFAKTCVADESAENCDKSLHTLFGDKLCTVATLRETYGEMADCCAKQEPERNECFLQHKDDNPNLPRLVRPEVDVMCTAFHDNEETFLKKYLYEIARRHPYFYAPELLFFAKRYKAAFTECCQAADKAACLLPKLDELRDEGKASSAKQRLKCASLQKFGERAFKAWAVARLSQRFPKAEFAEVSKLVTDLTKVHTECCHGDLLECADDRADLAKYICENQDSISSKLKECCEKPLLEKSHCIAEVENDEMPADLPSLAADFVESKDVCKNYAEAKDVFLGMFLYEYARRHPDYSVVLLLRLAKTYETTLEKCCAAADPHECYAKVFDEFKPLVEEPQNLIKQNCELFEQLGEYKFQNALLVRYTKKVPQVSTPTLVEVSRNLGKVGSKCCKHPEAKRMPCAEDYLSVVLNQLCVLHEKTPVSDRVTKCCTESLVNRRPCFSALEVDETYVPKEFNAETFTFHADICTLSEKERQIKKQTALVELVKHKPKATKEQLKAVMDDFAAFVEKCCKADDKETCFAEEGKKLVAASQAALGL
Description: Fluorescence polarisation assay was used to examine the affinity binding of the imaging agent towards the cMet target as well as the binding properties related to plasma proteins. The principle of the fluorescence polarisation method can briefly be described as follows:
as §1

[3] = Limited acute dose toxicity study in male rats; type: in vivo, rat; conditions: i.v.
Protocol: A limited acute dose toxicity study was conducted to investigate the tolerance of Compound 6 at 100 times the preclinical imaging dose (50 nmol/kg body weight).
The compound was injected intravenously in male rats, and the animals were sacrificed at 1, 14, 21 and 28 days post injection (p.i.). At necropsy, the major organs were inspected for gross pathology, and the kidneys were taken into neutral buffered formalin for subsequent histomorphological evaluation. A weak blue colouration of the skin and a moderate blue colouration of the urine were observed immediately after injection, which disappeared within 1 day p.i. […] The other minor changes seen were incidental and common in young adult laboratory rats. Strong fluorescence staining of blood vessels in the kidney was observed on day 1 p.i.

[4] = target: T1, human serum albumin
[5] = target: T2, human c-Met/Fc chimera (Homo sapiens, UniProt P08581); test: Fluorescence polarisation assay, affinity binding to cMet; conditions: 5 nM dye-labelled peptide, c-Met/Fc 0-250 nM, 10 min at 30° C., one-site binding
T2 construct: Fc (immunoglobulin Fc fusion partner); purchased R&D Systems
T2 sequence (P08581 with tags, fused parts or gaps limits assumed): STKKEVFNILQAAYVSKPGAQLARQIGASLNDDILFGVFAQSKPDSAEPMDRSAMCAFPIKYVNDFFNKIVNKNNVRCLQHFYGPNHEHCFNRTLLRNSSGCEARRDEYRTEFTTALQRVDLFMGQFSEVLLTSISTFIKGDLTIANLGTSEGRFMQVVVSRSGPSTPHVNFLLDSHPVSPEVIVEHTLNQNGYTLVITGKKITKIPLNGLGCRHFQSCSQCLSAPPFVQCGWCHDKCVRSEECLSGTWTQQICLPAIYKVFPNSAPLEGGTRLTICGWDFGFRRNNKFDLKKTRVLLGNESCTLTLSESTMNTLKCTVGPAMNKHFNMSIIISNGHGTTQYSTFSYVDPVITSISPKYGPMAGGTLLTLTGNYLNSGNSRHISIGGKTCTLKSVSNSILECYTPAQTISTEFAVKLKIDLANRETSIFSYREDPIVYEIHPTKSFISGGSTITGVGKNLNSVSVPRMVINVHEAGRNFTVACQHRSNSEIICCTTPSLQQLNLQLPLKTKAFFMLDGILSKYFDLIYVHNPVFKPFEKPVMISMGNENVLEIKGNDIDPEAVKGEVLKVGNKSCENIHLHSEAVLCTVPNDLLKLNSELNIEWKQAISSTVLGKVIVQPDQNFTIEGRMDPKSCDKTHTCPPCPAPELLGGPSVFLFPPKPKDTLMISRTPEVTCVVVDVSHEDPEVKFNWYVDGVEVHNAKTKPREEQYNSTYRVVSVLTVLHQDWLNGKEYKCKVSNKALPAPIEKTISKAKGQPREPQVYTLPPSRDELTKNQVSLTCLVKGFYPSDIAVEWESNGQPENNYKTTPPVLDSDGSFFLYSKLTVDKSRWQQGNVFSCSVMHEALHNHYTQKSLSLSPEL
T2 sequence (P08581 25-307 limits assumed, change not shown): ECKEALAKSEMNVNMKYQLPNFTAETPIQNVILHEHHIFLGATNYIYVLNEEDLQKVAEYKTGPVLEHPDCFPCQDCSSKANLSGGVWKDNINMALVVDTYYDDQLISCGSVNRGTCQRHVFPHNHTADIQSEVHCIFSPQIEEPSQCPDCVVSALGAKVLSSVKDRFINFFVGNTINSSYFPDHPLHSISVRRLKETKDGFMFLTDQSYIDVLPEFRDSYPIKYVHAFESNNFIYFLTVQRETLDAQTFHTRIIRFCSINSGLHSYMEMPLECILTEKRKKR
Protocol: Monochromatic light passes through a […] polarizing filter and excites fluorescent molecules in the sample. Only those molecules that oriented properly in the vertically polarized plane adsorb light, become excited, and subsequently emit light. The emitted light is measured in both horizontal and vertical planes. The anisotropy value (A), is the ratio between the light intensities following the equation
The fluorescence anisotropy measurements were performed in 384-well microplates in a volume of 10 μL in binding buffer (PBS, 0.01% Tween-20, pH 7.5) using a Tecan Safire fluorescence polarisation plate reader (Tecan, US) at Ex 635/Em 678 nm. The concentration of dye-labelled peptide was held constant (5 nM) and the concentration of the human c-Met/Fc chimera (R&D Systems) was varied from 0-250 nM. Binding mixtures were equilibrated in the microplate for 10 min at 30° C. The observed change in anisotropy was fitted to the equation: […]
where robs is the observed anisotropy, rfree is the anisotropy of the free peptide, rbound is the anisotropy of the bound peptide, Kd is the dissociation constant, cMet is the total c-Met concentration, and P is the total dye-labelled peptide concentration. The equation assumes that the synthetic peptide and the receptor form a reversible complex in solution with 1:1 stoichiometry. Data fitting was done via nonlinear regression using SigmaPlot software to obtain the Kd value (one-site binding).
Compounds 1 to 6 were tested for binding towards human c-Met (Fc chimera).

With `CC(=O)N[C@@H](C)C(=O)NCC(=O)N[C@@H](CO)C(=O)N[C@H]1CSSC[C@@H](C(=O)N[C@@H](Cc2ccc(O)cc2)C(=O)N[C@@H](CCC(=O)O)C(=O)N[C@H](C(=O)N[C@@H](CCC(=O)O)C(=O)NCC(=O)N[C@H](C(=O)NCC(=O)NCC(=O)NCC(=O)N[C@@H](CCCCNC(=O)CCCC2(C)C(/C=C/C=C3\C=C(C(C)(C)C)Oc4cc5c(cc43)C(C)=CC(C)(C)N5CCCS(=O)(=O)O)=[N+](CCCS(=O)(=O)O)c3ccc(S(=O)(=O)[O-])cc32)C(N)=O)[C@@H](C)O)[C@@H](C)O)NC(=O)[C@H](Cc2c[nH]c3ccccc23)NC(=O)[C@@H]2CSSC[C@H](NC(=O)[C@H](Cc3ccc(O)cc3)NC1=O)C(=O)N[C@@H](CO)C(=O)NCC(=O)N1CCC[C@H]1C(=O)N1CCC[C@H]1C(=O)N[C@@H](CCCNC(=N)N)C(=O)N[C@@H](Cc1ccccc1)C(=O)N[C@@H](CCC(=O)O)C(=O)N2` (stereo partly drawn) [Compound 6] (Ac-AGSCYCSGPPRFECWCYETEGTGGGK(X1)-NH2; disulfide 4-16, 6-14) the remaining at 2 h [1] was > 95%, the fraction unbound [2] was 0.54 and the “Fluorescence staining of blood vessels in the kidney” value ([3]; 100 times dose, day 21 p.i. (strong on day 1, reduced by day 14)) was “not discernible from control”. The “Light microscopy of the kidneys” value ([3]; 100 times dose, necropsy at 1, 14, 21 and 28 days p.i.) was “no Compound 6-related findings in the kidneys”, the Nephrotoxicity ([3]; 100 times dose, no degeneration, necrosis or inflammation) was “low” and the “Time to disappearance of blue colouration of skin and urine” value ([3]; 100 times dose, observed immediately after injection) was ≤ 1 days. The “Tolerance of a single intravenous administration” value ([3]; 100 times the preclinical imaging dose (50 nmol/kg body weight)) was “well tolerated and without any drug substance related adverse effects”, the “Binding human serum albumin (Biacore)” value [4] was “Very low” and the pKd [5] was 9.05.
For `CCN(CC)c1ccc2c(c1)OC(C(C)(C)C)=C/C2=C\C=C\C1=[N+](CCCCCC(=O)NCCCC[C@H](NC(=O)CNC(=O)CNC(=O)CNC(=O)[C@@H](NC(=O)CNC(=O)[C@H](CCC(=O)O)NC(=O)[C@@H](NC(=O)[C@H](CCC(=O)O)NC(=O)[C@H](Cc2ccc(O)cc2)NC(=O)[C@@H]2CSSC[C@H](NC(=O)[C@H](CO)NC(=O)CNC(=O)[C@H](C)NC(C)=O)C(=O)N[C@@H](Cc3ccc(O)cc3)C(=O)N[C@H]3CSSC[C@H](NC(=O)[C@H](CCC(=O)O)NC(=O)[C@H](Cc4ccccc4)NC(=O)[C@H](CCCNC(=N)N)NC(=O)[C@@H]4CCCN4C(=O)[C@@H]4CCCN4C(=O)CNC(=O)[C@H](CO)NC3=O)C(=O)N[C@@H](Cc3c[nH]c4ccccc34)C(=O)N2)[C@@H](C)O)[C@@H](C)O)C(N)=O)c2ccc(S(=O)(=O)[O-])cc2C1(C)C` [Compound 1] (Ac-AGSCYCSGPPRFECWCYETEGTGGGK(X6)-NH2; disulfide 4-16, 6-14), the remaining at 2 h [1] was > 95%, the fraction unbound [2] was 0.64 and the “Binding human serum albumin (Biacore)” value [4] was “Very high”. It also gave a pKd [5] of 8.66.
In the case of `CCN(CC)c1ccc2c(c1)OC(C(C)(C)C)=C/C2=C\C=C\C1=[N+](CCCS(=O)(=O)O)c2ccc(S(=O)(=O)[O-])cc2C1(C)CCCC(=O)NCCCC[C@H](NC(=O)CNC(=O)CNC(=O)CNC(=O)[C@@H](NC(=O)CNC(=O)[C@H](CCC(=O)O)NC(=O)[C@@H](NC(=O)[C@H](CCC(=O)O)NC(=O)[C@H](Cc1ccc(O)cc1)NC(=O)[C@@H]1CSSC[C@H](NC(=O)[C@H](CO)NC(=O)CNC(=O)[C@H](C)NC(C)=O)C(=O)N[C@@H](Cc2ccc(O)cc2)C(=O)N[C@H]2CSSC[C@H](NC(=O)[C@H](CCC(=O)O)NC(=O)[C@H](Cc3ccccc3)NC(=O)[C@H](CCCNC(=N)N)NC(=O)[C@@H]3CCCN3C(=O)[C@@H]3CCCN3C(=O)CNC(=O)[C@H](CO)NC2=O)C(=O)N[C@@H](Cc2c[nH]c3ccccc23)C(=O)N1)[C@@H](C)O)[C@@H](C)O)C(N)=O` (stereo partly drawn) [Compound 2] (Ac-AGSCYCSGPPRFECWCYETEGTGGGK(X4)-NH2; disulfide 4-16, 6-14), the remaining at 2 h [1] was > 95%, the fraction unbound [2] was 0.67 and the “Binding human serum albumin (Biacore)” value [4] was “Very low”. It also gave a pKd [5] of 9.30.
In the case of `CCN1c2cc3c(cc2C(C)=CC1(C)C)/C(=C/C=C/C1=[N+](CCCS(=O)(=O)O)c2ccc(S(=O)(=O)[O-])cc2C1(C)CCCC(=O)NCCCC[C@H](NC(=O)CNC(=O)CNC(=O)CNC(=O)[C@@H](NC(=O)CNC(=O)[C@H](CCC(=O)O)NC(=O)[C@@H](NC(=O)[C@H](CCC(=O)O)NC(=O)[C@H](Cc1ccc(O)cc1)NC(=O)[C@@H]1CSSC[C@H](NC(=O)[C@H](CO)NC(=O)CNC(=O)[C@H](C)NC(C)=O)C(=O)N[C@@H](Cc2ccc(O)cc2)C(=O)N[C@H]2CSSC[C@H](NC(=O)[C@H](CCC(=O)O)NC(=O)[C@H](Cc4ccccc4)NC(=O)[C@H](CCCNC(=N)N)NC(=O)[C@@H]4CCCN4C(=O)[C@@H]4CCCN4C(=O)CNC(=O)[C@H](CO)NC2=O)C(=O)N[C@@H](Cc2c[nH]c4ccccc24)C(=O)N1)[C@@H](C)O)[C@@H](C)O)C(N)=O)C=C(C(C)(C)C)O3` (stereo partly drawn) [Compound 5] (Ac-AGSCYCSGPPRFECWCYETEGTGGGK(X5)-NH2; disulfide 4-16, 6-14), the remaining at 2 h [1] was > 95%, the fraction unbound [2] was 0.51 and the “Binding human serum albumin (Biacore)” value [4] was “Medium”. It also gave a pKd [5] of 8.66.

— US20100196282A1, “OPTICAL IMAGING AGENTS” (priority 2007, published 2010)
